Test [1] deals with T1, FcγRI with His tag (UniProt P12314 16-288).
T1 construct: Bought protein; also called FcγRI (Sino Biological #10256-H08H)
Nature of the test: SPR, His-tagged FcγRI captured by anti-His antibody on the chip, antibody as analyte [row FcγRI, column GPC3×CD3 κλ002]. The method, then:
(§1) 50 μg/mL His-Tag antibodies were conjugated to a CMS chip through amino groups, and recombinant proteins FcγRI, FcγRIIAH131, and FcγRIIIAV158 with His tags (Sino Biological, #10256-H08H/10374-H08H1/10389-H08H1) were respectively captured for a capture time of 40 s at a flow rate of 10 μL/min. After the baseline was stable, the gradient-diluted antibody (the initial concentration of 37.5 μg/mL, 2-fold dilution) flowed through the chip at a flow rate of 30 μL/min, with a binding time of 120 s and a dissociation time of 200 s. The affinity constants were obtained by fitting them with Biacore evaluation software. It can be seen from FIG. 22 that the GPC3×CD3κλ bispecific antibody has no binding to FcγRI, FcγRIIAH131, and FcγRIIIAV158; The wild-type IgG4 control antibody can bind to FcγRI with high affinity and weakly bind to Fcγ RIIAH131.

Test [2] concerns the target T2, FcγRIIAH131 with His tag (UniProt P12318 34-218).
T2 construct: Bought protein; also called Fcγ RIIAH131 (Sino Biological #10374-H08H1)
T2 sequence (looked up): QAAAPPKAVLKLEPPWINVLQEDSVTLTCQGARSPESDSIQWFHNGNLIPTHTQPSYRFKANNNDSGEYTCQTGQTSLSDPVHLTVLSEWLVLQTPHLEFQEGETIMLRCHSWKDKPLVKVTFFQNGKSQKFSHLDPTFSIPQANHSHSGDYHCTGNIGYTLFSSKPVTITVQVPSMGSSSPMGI
Nature of the test: SPR, His-tagged FcγRIIAH131 captured by anti-His antibody on the chip, antibody as analyte [row FcγRIIAH131, column GPC3×CD3 κλ002]. How it is done: as §1
(In SPR one partner is held on a chip, and binding of the other changes the refractive index at the surface.)

The target of test [3] is T3, FcγRIIIAV158 with His tag (UniProt P08637 17-208).
T3 construct: Bought protein; also called FcγRIIIAV158 (Sino Biological #10389-H08H1)
T3 sequence (P08637 17-208 F176V limits assumed): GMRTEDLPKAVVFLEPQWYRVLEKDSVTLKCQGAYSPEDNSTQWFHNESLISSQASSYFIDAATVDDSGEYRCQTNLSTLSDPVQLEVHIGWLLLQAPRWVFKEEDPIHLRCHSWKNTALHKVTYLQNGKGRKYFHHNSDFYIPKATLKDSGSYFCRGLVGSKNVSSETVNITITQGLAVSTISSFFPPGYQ
As to the kind of experiment: SPR, His-tagged FcγRIIIAV158 captured by anti-His antibody on the chip, antibody as analyte [row FcγRIIIAV158, column GPC3×CD3 κλ002]. The method, then: as §1

Test [4] concerns the target T2, FcγRIIAH131 with His tag. Nature of the test: SPR, His-tagged FcγRIIAH131 captured by anti-His antibody on the chip, antibody as analyte [row FcγRIIAH131, column GPC3×CD3 κλ003]. How it is done: as §1
Test [5] addresses T1, FcγRI with His tag. As to the kind of experiment: SPR, His-tagged FcγRI captured by anti-His antibody on the chip, antibody as analyte [row FcγRI, column GPC3×CD3 κλ003]. How it is done: as §1

Substitutions are numbered along the chain they refer to.

T1 sequence (P12314 16-288 limits assumed): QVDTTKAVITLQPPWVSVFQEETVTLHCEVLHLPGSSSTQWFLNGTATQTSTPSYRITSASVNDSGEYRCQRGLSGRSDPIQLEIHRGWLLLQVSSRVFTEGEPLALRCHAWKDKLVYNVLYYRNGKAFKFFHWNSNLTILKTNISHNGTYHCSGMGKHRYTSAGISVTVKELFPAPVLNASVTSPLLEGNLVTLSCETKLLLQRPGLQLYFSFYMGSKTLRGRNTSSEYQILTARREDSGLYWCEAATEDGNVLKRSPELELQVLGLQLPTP

B1: GPC3×CD3 κλ002 (bispecific antibody, human IgG4 S228P, kappa, lambda)
light 1: DVVMTQSPLSLPVTPGEPASISCRSSQSIVHSNGNTYLEWYLKKPGQSPQLLIYKVSNRFSGVPDRFSGSGSGTDFTLKISRVEAEDVGVYFCLQVTHVPLTFGQGTKLEIKRTVAAPSVFIFPPSDEQLKSGTASVVCLLNNFYPREAKVQWKVDNALQSGNSQESVTEQDSKDSTYSLSSTLTLSKADYEKHKVYACEVTHQGLSSPVTKSFNRGEC
heavy 1: QVQLVQSGAEVKKPGSSVKVSCKASGYTFADYEIHWVREAPGQGLEWMGAIHPGSGGTAYAQKFQGRVTLTADESSTTAYMELSSLRSEDTAVYYCTRYYSFAYWGQGTLVTVSSASTKGPSVFPLAPCSRSTSESTAALGCLVKDYFPEPVTVSWNSGALTSGVHTFPAVLQSSGLYSLSSVVTVPSSSLGTKTYTCNVDHKPSNTKVDKRVESKYGPPCPPCPAPEFEGGPSVFLFPPKPKDTLMISRTPEVTCVVVDVSQEDPEVQFNWYVDGVEVHNAKTKPREEQFNSTYRVVSVLTVLHQDWLNGKEYKCKVSNKGLASSIEKTISKAKGQPREPQVCTLPPSQEEMTKNQVSLSCAVKGFYPSDIAVEWESNGQPENNYKTTPPVLDSDGSFFLVSKLTVDKSRWQEGNVFSCSVMHEALHNHYTQKSLSLSLGK
light 2: QAVVTQEPSLTVSPGGTVTLTCRSSTGAVTTSNYANWVQEKPGQAPRGLIGGTNKRAPWTPARFSGSLLGGKAALTITGAQAEDEAEYYCVLWYSNLWVFGGGTKLTVLGQPKAAPSVTLFPPSSEELQANKATLVCLISDFYPGAVTVAWKADSSPVKAGVETTTPSKQSNNKYAASSYLSLTPEQWKSHRSYSCQVTHEGSTVEKTVAPTECS
heavy 2: EVQLVESGGGLVQPGGSLRLSCAASGFTFNTYAMNWVRKAPGKGLEWVGRIRSKYNNYATYYADSVKDRFTISRDDSKNSLYLQMNSLKTEDTAVYYCVRHGNFGNSYVSWFAYWGQGTLVTVSSASTKGPSVFPLAPCSRSTSESTAALGCLVKDYFPEPVTVSWNSGALTSGVHTFPAVLQSSGLYSLSSVVTVPSSSLGTKTYTCNVDHKPSNTKVDKRVESKYGPPCPPCPAPEFEGGPSVFLFPPKPKDTLMISRTPEVTCVVVDVSQEDPEVQFNWYVDGVEVHNAKTKPREEQFNSTYRVVSVLTVLHQDWLNGKEYKCKVSNKGLASSIEKTISKAKGQPREPQVYTLPPCQEEMTKNQVSLWCLVKGFYPSDIAVEWESNGQPENNYKTTPPVLDSDGSFFLYSKLTVDKSRWQEGNVFSCSVMHEALHNHYTQKSLSLSLGK
notes: also called GPC3 x CD3 κλ002; GPC3×CD3κλ bispecific antibody
Consider B1, for which the binding result (with FcγRI with His tag [1]; with FcγRIIAH131 with His tag [2]; in test [3]) was “no binding” each time.

B2: GPC3×CD3 κλ003 (bispecific antibody, human IgG4 S228P, kappa, lambda)
light 1: B1 light 1 with E128K, Q129K
heavy 1: B1 heavy 1 with K145E, K211E
light 2: B1 light 2
heavy 2: B1 heavy 2
notes: also called GPC3 x CD3 κλ003; GPC3×CD3κλ bispecific antibody
For B2, the binding result in the test with FcγRIIAH131 with His tag [4] and in the test with FcγRI with His tag [5] was “no binding” each time.

The values are drawn from patent US20240043568A1 (KEYMED BIOSCIENCES, published 2024).
